The nanobody polyreactivity screen of Harvey et al. (2022)

experiment: yeast display, Sf9 membrane polyspecificity reagent, FACS + sequencing; frameworks hold sequencing errors
How it was run: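 A nanobody's polyreactivity label depends on the gate it was sorted from. Yeast display cells were stained with 10% biotinylated, detergent-solubilized Sf9 membrane reagent for 1 hour at 4 °C, enriched on streptavidin microbeads and sorted by FACS. The low and high (top ~1%) gates were set on anti-HA fluorescence for expression and streptavidin fluorescence for reagent binding.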

Sequence	polyreactivity (PSR sort gate)
QVQLVESGGGLVQAGGSLRISCAASGSTFDYDDMRWYRQAPGKERELVASITSGGITDYADSVKGRFTISRDNAKNTVYLQMNSLTPEDTAVYYCNAARQYSRSAEGYLVWGYSWGQGTQVTVSS	low polyreactivity
QDQHVESGGGLVQAGGSLRLSCDASGRTFRKNAMGSYRQARGKERELVAAISWSGDSTYYADSVKGRFTISRDNAKNTVYLQMNSLKPEDSAVYYCAADSRYHFYYWRQGTQVTVSS	high polyreactivity
QVQLVESGGGLVQAGCSLRLSCAASGSTYIRNAMGWYRQAPGKERELVAAISTSGSRTYYADSVKGRFTISRDNAKNTVYLQMNSLKPEDTAVYYCAKVPAGSRIEYDYCGQGTQVTVSS	high polyreactivity
QVQLVESGGGLVQAGRSLRLSCAASGRTYGIYAMGWYRQAPGKERQLVAAITWSGDSTYYADSVKGRFTISRDNAKNTVYLQMNSLKPEDTAVYYCAADYVGVTSVRYDYWGQGTQVTVSS	low polyreactivity
QVQLVESGGGIVQAGGSLRLTCAASGYIFYSYAMGWYRHAPGKERELVATISSGGSTYYADSVKGRFTISRDNAKNTVYFQMNSLKPEDTAVYYCATDHDIVYNFNRYDYWGQGTQVTVSS	low polyreactivity
QVQLVESGGGLVQAGGSLRLSCAASGLIFTVYAMGWYRQAPGKERELVAAISGTGGSTYYADSVKGRFTISRDNAKNTVYLQMNSLIPEDTAVYYCAAVPIIRLATTSSSRGDYWGQGTQVTVSS	low polyreactivity
QVQLVESGGGLVQAGGSLRLSCAASGFIFAYYAMGWYRQAPGKERELVAGINRTGSTNYADSVKGRFSISRDNAKNTVYLQMNSLKPEDTAVYYCAARGYRSGGGYNYWGQGTQVTVSS	high polyreactivity
QVQLVESAAGLVQAGGSLRLSCAASGLILDEYAMGWYRQAPGKEMELVAAISWSGGSTYYADSVKGRFTISRDNAKNTVYLQMNSLKPEDTAVYYCAADRVWFSDNSYYYWGQGTQVTVSS	high polyreactivity
QVQLVESGGGLFQAGGILILSFAASGNTLNYYTMGWYRQAPGKERELVAAISSSGGSTYYAESVKGSFTISRDYAKNTVYLHMNRLKPEDNAVYFCNDSVINEMNNWGQGTQVTVSS	low polyreactivity
QVQLVESGGGLVQAGGSLRLSCAASGGIFADYAMGWYRQAPGKERELVAAISSGGNTNYADSVKGRFTISRDNAKNTVYLQMNSLKPEDTAVYYCNRDTSYYRYVYYEGNDYWGQGTQVTVSS	low polyreactivity
QVQLVESAGGLVQAGGSLRLSCAASGSIFYRNVMAWYRQAPGQERELVAAITWSGGSTYYADSVKGRFTISRDNAKNTVYLQMNSLKPEDTAVYFCAAASKATYRGKVSGYYYWGQGTQVTVSS	high polyreactivity
QVQLVESGGGLFQAGGSLRLSCAASGRTFGIYAMRWYRQAPGKERELVATISWRGGSTYYADSVKGRFTISRDNAKNTVDLQMNSLKPEDTAVYYCAAVLTALSPDFEYEYWGQGTQVTVSS	low polyreactivity
QVLLVESGGGLVQAGGSLRLSCAASGSIFWGYDMGWYRQAPGKDSELVAVISWSTTSTYFADSVKGRFTISRDNANNTVYLLMNSLKAEDTAVYYCNSEAYQYWEFDYWGQGTQVTVSS	low polyreactivity
QVQLVESGGGLVQAGGSLRLSCAASGRTFSSNAMGWYRQAPGKERELVASISFRGGRTYYADSVKGRFTISRDNAKNTVYLQMNSLKPVDTAVYYCATAYYYFSPSRADGEYWGQGTQVTVSS	high polyreactivity
QVQLVESGGGLVQAGGSLRLSCAASGSIFGWYAMGWYRQAPGKERELVAGISWSGANTYYADSVKGRFTISRDNAKNTVYLQMNSLKPEDTAVYYCAAGPGLYYSRRYGYWGQGTQVTVSS	high polyreactivity
QVQIVESGGGLVQAGGSLRLSCADSGRIFYLYDMGWYRQAPGKERELVATISCSGGSTYYADSVMGRFTISRDNAKNTVYLQMNSLKPEDTALYYCAAVSVSSWYDYWGQGTQVTVSS	low polyreactivity
